Source: the Human Domainome abundance scans (Beltran et al. 2025)
± gives the uncertainty stated by the source.

B1: Membrane-associated guanylate kinase, WW and PDZ domain-containing protein 2, residues 296 to 340; numbered along this chain, Q86UL8 (parent)
chain: EDNEEPDPLPDNWEMAYTEKGEVYFIDHNTKTTSWLDPRLAKKAK
B2: Zinc finger MYM-type protein 3, residues 405 to 444; numbered along this chain, Q14202 (parent)
chain: DATRCSICQKTGEVLHEVSNGSVVHRLCSDSCFSKFRANK

Variants of: B1
Experiment: abundance fitness (aPCA) (normalised: wild type 0, dead -1); higher = more abundant; growth selection in yeast, the domain comes from the species named
Settings: Homo sapiens
Variant A41F has an abundance fitness of -0.113 ± 0.085.
A41G gave an abundance fitness of 0.138 ± 0.12.
A41R gave an abundance fitness of -0.058 ± 0.077.
Work on A41L yielded an abundance fitness of -0.297 ± 0.29.
Work on K45Q yielded an abundance fitness of 0.1 ± 0.21.
In the case of K45V, the abundance fitness is reported as 0.209 ± 0.28.
For K45S, the abundance fitness was 0.076 ± 0.074.
Variant K45W has an abundance fitness of -0.01 ± 0.087.
For K45G, the abundance fitness was 0.081 ± 0.067.
Variant K45R has an abundance fitness of 0.199 ± 0.23.
For K45E, the abundance fitness was -0.022 ± 0.098.
In the case of L40V, the abundance fitness is reported as 0.043 ± 0.045.
For L40W, the abundance fitness was -0.133 ± 0.059.
In the case of A44L, the abundance fitness is reported as -0.111 ± 0.063.
Work on A44W yielded an abundance fitness of -0.118 ± 0.087.
With A44V the abundance fitness was -0.009 ± 0.064.
In the case of A44R, the abundance fitness is reported as -0.076 ± 0.056.
Work on A44E yielded an abundance fitness of 0.07 ± 0.064.
With K42E the abundance fitness was 0.035 ± 0.062.
With K42L the abundance fitness was 0.046 ± 0.22.
K42Y showed an abundance fitness of -0.033 ± 0.11.
Variant K42P has an abundance fitness of 0.128 ± 0.066.
With K42D the abundance fitness was -0.05 ± 0.18.
Work on K42R yielded an abundance fitness of 0.021 ± 0.046.
For K42M, the abundance fitness was 0.011 ± 0.071.
For K42V, the abundance fitness was 0.079 ± 0.093.
Variant K42N has an abundance fitness of 0.032 ± 0.18.
Variant K42C has an abundance fitness of 0.097 ± 0.077.
In the case of K42T, the abundance fitness is reported as -0.148 ± 0.15.
With K42A the abundance fitness was 0.085 ± 0.051.
K42W gave an abundance fitness of 0.089 ± 0.094.
For K42G, the abundance fitness was 0.014 ± 0.046.
For K43I, the abundance fitness was -0.139 ± 0.48.
For K43L, the abundance fitness was -0.113 ± 0.053.
K43A showed an abundance fitness of 0.062 ± 0.085.
Variant K43T has an abundance fitness of -0.043 ± 0.12.
For K43V, the abundance fitness was 0.023 ± 0.094.
For K43N, the abundance fitness was -0.324 ± 0.42.
K43G showed an abundance fitness of 0.066 ± 0.047.
Variant K43W has an abundance fitness of -0.2 ± 0.075.
K43D gave an abundance fitness of 0.029 ± 0.12.
With K43F the abundance fitness was -0.142 ± 0.093.
For K43R, the abundance fitness was 0.023 ± 0.063.

Variants of: B2
Experiment: as above
Settings: Homo sapiens
For DATRSSICQKTGEVLHEVSNGSVVHRLCSDSCFSKFRANK [C5S], the abundance fitness was -0.922 ± 0.097.
For DATRWSICQKTGEVLHEVSNGSVVHRLCSDSCFSKFRANK [C5W], the abundance fitness was -1.06 ± 0.098.
With DATRCSICQKTGEVLHEVSNGSVVHRLCSDSCFSKFLANK [R37L] the abundance fitness was -0.304 ± 0.058.
DATRCSICQKTGEVLHEVSNGSVVHRLCSDSCFSKFNANK [R37N] gave an abundance fitness of 0.135 ± 0.11.
DATRCSICQKTGEVLHEVSNGSVVHRLCSDSCFSKFSANK [R37S] showed an abundance fitness of 0.048 ± 0.057.
DATRCSICQKTGEVLHEVSNGSVVHRLCSDSCFSKFAANK [R37A] showed an abundance fitness of -0.003 ± 0.056.
For DATRCSICQKTGEVLHEVSNGSVVHRLCSDSCFSKFDANK [R37D], the abundance fitness was 0.143 ± 0.08.
Work on DATRCSICQKTGEVLHEVSNGSVVHRLCSDSCFSKFRLNK [A38L] yielded an abundance fitness of -0.265 ± 0.078.
DATRCSICQKTGEVLHEVSNGSVVHRLCSDSCFSKFRSNK [A38S] showed an abundance fitness of -0.2 ± 0.061.
Work on DATRCSICQKTGEVLHEVSNGSVVHRLCSDSCFSKFRMNK [A38M] yielded an abundance fitness of -0.033 ± 0.094.
Work on DATRCSICQKTGEVLHEVSNGSVVHRLCSDSCFSKFRAGK [N39G] yielded an abundance fitness of 0.017 ± 0.058.
DATRCSICQKTGEVLHEVSNGSVVHRLCSDSCFSKFRADK [N39D] gave an abundance fitness of -0.228 ± 0.13.
For DATRCSICQKTGEVLHEVSNGSVVHRLCSDSCFSKFRAQK [N39Q], the abundance fitness was 0.29 ± 0.078.
Variant DATRCSICQKTGEVLHEVSNGSVVHRLCSDSCFSPFRANK [K35P] has an abundance fitness of -0.471 ± 0.074.
For DATRCSICQKTGEVLHEVSNGSVVHRLCSDSCFSQFRANK [K35Q], the abundance fitness was 0.146 ± 0.067.
Work on DATRCSICQKTGEVLHEVSNGSRVHRLCSDSCFSKFRANK [V23R] yielded an abundance fitness of -0.013 ± 0.052.
DATRCSICQKTGEVLHEVSNGSSVHRLCSDSCFSKFRANK [V23S] showed an abundance fitness of 0.007 ± 0.056.
DATRCSICQKTGEVLHEVSNGSVIHRLCSDSCFSKFRANK [V24I] showed an abundance fitness of -0.064 ± 0.089.
Variant DATRCSICQKTGEVLHEVSNGSVTHRLCSDSCFSKFRANK [V24T] has an abundance fitness of -0.038 ± 0.061.
Work on DATRCSICQKTGEVLHEVSNGSVVHRDCSDSCFSKFRANK [L27D] yielded an abundance fitness of -0.569 ± 0.092.
DATRCSICQKTGEVLHEVSNGSVVHRHCSDSCFSKFRANK [L27H] showed an abundance fitness of -0.382 ± 0.08.
Work on DATRCSICQKTGEVLHEVSNGSVVHRVCSDSCFSKFRANK [L27V] yielded an abundance fitness of -0.22 ± 0.056.
DATRCSICQKTGEVLHEVSIGSVVHRLCSDSCFSKFRANK [N20I] gave an abundance fitness of 0.047 ± 0.096.
DATRCSICQKTGEVLHEVSFGSVVHRLCSDSCFSKFRANK [N20F] gave an abundance fitness of -0.431 ± 0.1.
For DATRCSICQKTGTVLHEVSNGSVVHRLCSDSCFSKFRANK [E13T], the abundance fitness was -0.111 ± 0.07.
With DATRCSICQKTGNVLHEVSNGSVVHRLCSDSCFSKFRANK [E13N] the abundance fitness was -0.216 ± 0.086.
For DATRCSICQKTGMVLHEVSNGSVVHRLCSDSCFSKFRANK [E13M], the abundance fitness was -0.074 ± 0.069.
DATRCSICQKTGLVLHEVSNGSVVHRLCSDSCFSKFRANK [E13L] showed an abundance fitness of -0.391 ± 0.057.
Variant DATRCSICQKTGIVLHEVSNGSVVHRLCSDSCFSKFRANK [E13I] has an abundance fitness of -0.448 ± 0.11.
DATRCSICQKTGEVLHEVSNGSVVHRLHSDSCFSKFRANK [C28H] showed an abundance fitness of -0.733 ± 0.086.
DATRCSICQKTGEVLHEVSNGSVVHRLQSDSCFSKFRANK [C28Q] showed an abundance fitness of -0.809 ± 0.082.
Work on DATRCSICQKTGEVLHEVSNGSVVHRLDSDSCFSKFRANK [C28D] yielded an abundance fitness of -0.529 ± 0.081.
DATRCSICQKTGEVLHEVSNGSVVHRLNSDSCFSKFRANK [C28N] gave an abundance fitness of -0.765 ± 0.11.
